According to JP2012161321A:

Columns and labels:
[1] = biological target: Muc1ムチン bearing the CA6 sialoglycotope (DS6 antigen), as expressed by CA6-positive human tumour cell lines (human) (UniProt P15941); experiment: cell-based or functional assay
[2] = biological target: Muc1ムチン bearing the CA6 sialoglycotope (DS6 antigen), as expressed by CA6-positive human tumour cell lines (human) (UniProt P15941); experiment: flow cytometry on Caov-3 cells, apparent Kd (Fig. 20)
[3] = biological target: Muc1ムチン bearing the CA6 sialoglycotope (DS6 antigen), as expressed by CA6-positive human tumour cell lines (human) (UniProt P15941); experiment: flow cytometry, direct binding to KB cells, apparent Kd (Fig. 18)
[4] = biological target: Muc1ムチン bearing the CA6 sialoglycotope (DS6 antigen), as expressed by CA6-positive human tumour cell lines (human) (UniProt P15941); experiment: flow cytometry competition; competitor 2 nM biotin-muDS6, streptavidin-DTAF (Fig. 19)

Chain of UniProt P15941 (P15941 24-1255): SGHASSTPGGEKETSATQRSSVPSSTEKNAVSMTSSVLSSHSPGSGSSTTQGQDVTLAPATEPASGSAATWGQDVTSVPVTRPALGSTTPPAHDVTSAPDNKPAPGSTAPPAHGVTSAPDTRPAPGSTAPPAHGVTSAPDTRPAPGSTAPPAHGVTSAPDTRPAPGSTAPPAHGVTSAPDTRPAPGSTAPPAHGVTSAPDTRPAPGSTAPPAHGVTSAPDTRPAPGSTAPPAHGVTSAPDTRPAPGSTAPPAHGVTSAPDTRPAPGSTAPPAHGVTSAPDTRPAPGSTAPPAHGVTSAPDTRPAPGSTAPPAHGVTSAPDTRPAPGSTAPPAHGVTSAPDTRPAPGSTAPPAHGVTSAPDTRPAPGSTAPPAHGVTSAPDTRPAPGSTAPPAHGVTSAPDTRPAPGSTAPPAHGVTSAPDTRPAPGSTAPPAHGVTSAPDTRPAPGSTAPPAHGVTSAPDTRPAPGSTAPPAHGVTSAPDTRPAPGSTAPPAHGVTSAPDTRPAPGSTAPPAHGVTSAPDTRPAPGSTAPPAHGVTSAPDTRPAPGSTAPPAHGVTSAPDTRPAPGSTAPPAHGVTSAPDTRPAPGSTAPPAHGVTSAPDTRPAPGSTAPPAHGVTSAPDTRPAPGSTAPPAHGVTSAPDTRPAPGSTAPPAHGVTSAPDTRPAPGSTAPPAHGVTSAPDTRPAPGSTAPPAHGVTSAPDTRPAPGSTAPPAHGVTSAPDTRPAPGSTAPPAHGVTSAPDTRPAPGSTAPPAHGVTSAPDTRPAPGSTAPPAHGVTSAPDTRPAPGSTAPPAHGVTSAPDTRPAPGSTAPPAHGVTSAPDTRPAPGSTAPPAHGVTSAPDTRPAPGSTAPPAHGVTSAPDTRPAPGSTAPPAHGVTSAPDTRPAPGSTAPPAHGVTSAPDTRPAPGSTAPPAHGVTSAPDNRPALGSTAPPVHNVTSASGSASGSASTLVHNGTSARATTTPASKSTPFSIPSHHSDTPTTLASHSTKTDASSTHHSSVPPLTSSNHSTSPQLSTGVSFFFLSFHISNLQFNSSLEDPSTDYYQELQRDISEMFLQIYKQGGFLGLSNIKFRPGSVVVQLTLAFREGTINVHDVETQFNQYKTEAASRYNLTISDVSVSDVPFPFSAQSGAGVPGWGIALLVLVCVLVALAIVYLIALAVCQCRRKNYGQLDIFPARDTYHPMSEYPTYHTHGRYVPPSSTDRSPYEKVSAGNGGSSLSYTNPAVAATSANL

Row | IC50, colony formation assay on Caov-3 cells [1] | Kd [2] | Kd [3] | EC50 [4] | Binder | IC50, in vitro cytotoxicity (MTT) on WISH cells [1]
1 | 0.8 nM | 3.9 nM |  |  | muDS6−DM1細胞傷害性コンジュゲート (muDS6-SPP-DM1) (antibody, from another filing, V domains shown) VH: QAYLQQSGAELVRSGASVKMSCKASGYTFTSYNMHWVKQTPGQGLEWIGYIYPGNGATNYNQKFKGKATLTADPSSSTAYMQISSLTSEDSAVYFCARGDSVPFAYWGQGTLVTVSA VL: QIVLTQSPAIMSASPGEKVTITCSAHSSVSFMHWFQQKPGTSPKLWIYSTSSLASGVPARFGGSGSGTSYSLTISRMEAEDAATYYCQQRSSFPLTFGAGTKLELKR | 
2 |  |  | 0.82 nM | 3 nM | ヒト化DS6 1.01型 (humanized DS6 version 1.01) (antibody, from another filing, V domains shown) VH: QAQLVQSGAEVVKPGASVKMSCKASGYTFTSYNMHWVKQTPGQGLEWIGYIYPGNGATNYNQKFQGKATLTADTSSSTAYMQISSLTSEDSAVYFCARGDSVPFAYWGQGTLVTVSA VL: EIVLTQSPATMSASPGERVTITCSAHSSVSFMHWFQQKPGTSPKLWIYSTSSLASGVPARFGGSGSGTSYSLTISSMEAEDAATYYCQQRSSFPLTFGAGTKLELKR | 
3 |  |  |  |  | huDS6v1.01−SPDB−DM4コンジュゲート (antibody, from another filing, human IgG1, V domains shown) VH: QAQLVQSGAEVVKPGASVKMSCKASGYTFTSYNMHWVKQTPGQGLEWIGYIYPGNGATNYNQKFQGKATLTADTSSSTAYMQISSLTSEDSAVYFCARGDSVPFAYWGQGTLVTVSA VL: EIVLTQSPATMSASPGERVTITCSAHSSVSFMHWFQQKPGTSPKLWIYSTSSLASGVPARFGGSGSGTSYSLTISSMEAEDAATYYCQQRSSFPLTFGAGTKLELKR | 0.44 nM
4 |  |  | 0.85 nM | 1.9 nM | ヒト化DS6 1.21型 (humanized DS6 version 1.21) (antibody, from another filing, V domains shown) VH: QAQLVQSGAEVVKPGASVKMSCKASGYTFTSYNMHWVKQTPGQGLEWIGYIYPGNGATNYNQKFQGKATLTADPSSSTAYMQISSLTSEDSAVYFCARGDSVPFAYWGQGTLVTVSA VL: EIVLTQSPATMSASPGERVTITCSAHSSVSFMHWFQQKPGTSPKLWIYSTSSLASGVPARFGGSGSGTSYSLTISSMEAEDAATYYCQQRSSFPLTFGAGTKLELKR | 
5 |  |  | 0.69 nM | 1.7 nM | DS6のキメラ型 (chimeric DS6, human constant regions and murine variable regions) (antibody, from another filing, V domains shown) VH: QAYLQQSGAELVRSGASVKMSCKASGYTFTSYNMHWVKQTPGQGLEWIGYIYPGNGATNYNQKFKGKATLTADPSSSTAYMQISSLTSEDSAVYFCARGDSVPFAYWGQGTLVTVSA VL: QIVLTQSPAIMSASPGEKVTITCSAHSSVSFMHWFQQKPGTSPKLWIYSTSSLASGVPARFGGSGSGTSYSLTISRMEAEDAATYYCQQRSSFPLTFGAGTKLELKR | 
